# B1: Daratumumab (antibody, human IgG1, kappa, V domains shown)
# VH: EVQLLESGGGLVQPGGSLRLSCAVSGFTFNSFAMSWVRQAPGKGLEWVSAISGSGGGTYYADSVKGRFTISRDNSKNTLYLQMNSLRAEDTAVYFCAKDKILWFGEPVFDYWGQGTLVTVSS
# VL: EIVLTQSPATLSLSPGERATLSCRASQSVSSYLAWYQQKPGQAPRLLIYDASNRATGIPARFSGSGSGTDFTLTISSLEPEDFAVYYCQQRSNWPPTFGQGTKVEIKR
# How the values were obtained:
# Human CD38 on cells [1] = biological target: T1, Human CD38 on cells (human, UniProt P28907 1-300); test: cell-based or functional assay
# Human CD38 on cells [2] = biological target: T1, Human CD38 on cells; test: cell-based or functional assay; remark: listed apart in the source
binder,measurement,setting,value
B1,"CDC, 10% complement, target Daudi cells: EC50 ug/ml DARA (experiment 10)",Human CD38 on cells [1],0.11 µg/mL
same,"CDC, 10% complement, target Daudi cells: EC50 ug/ml DARA (experiment 11)",Human CD38 on cells [1],0.07 µg/mL
same,"ADCC, target Daudi cells: EC50 ug/ml DARA",Human CD38 on cells [2],0.0139 µg/mL

# — US20200362049A1 (BLACK BELT THERAPEUTICS, published 2020)
